Molecular target: T1, HLA-DR1 (DR1αβ; DRA and DRB1*0101) on cells (human)
T1 construct: whole, on cells
Experiment: flow cytometry on human MHC class II expressing cells

B1: Staphylococcal enterotoxin A (SEA), wild type (ligand)
chain: SEKSEEINEKDLRKKSELQGTALGNLKQIYYYNEKAKTENKESHDQFLQHTILFKGFFTDHSWYNDLLVDFDSKDIVDKYKGKKVDLYGAYYGYQCAGGTPNKTACMYGGVTLHDNNRLTEEKKVPINLWLDGKQNTVPLETVKTNKKNVTVQELDLQARRYLQEKYNLYNSDVFDGKVQRGLIVFHTSTEPSVNYDLFGAQGQYSNTLLRIYRDNKTINSENMHIDIYLYTS
B1: binds.

Source: patent EP1105154B1 (Walter Reed Army Institute of Research, dated 2016)
